According to doi:10.1101/2025.09.17.674891 (bioRxiv, 2025):

Columns and labels:
[1] = molecular target: T1, SARS-CoV-2 RBD (recombinant) (SARS-CoV-2, UniProt P0DTC2); assay: ELISA
[2] = molecular target: WIV-1 RBD (recombinant) (bat sarbecovirus WIV-1, UniProt U5WI05); assay: ELISA
[3] = molecular target: RacCS203 RBD (recombinant) (Bat coronavirus RacCS203); assay: ELISA
[4] = molecular target: Rs4231 RBD (recombinant) (Bat SARS-like coronavirus, isolate …, UniProt A0A2D1PXA9); assay: ELISA
[5] = molecular target: T1, SARS-CoV-2 RBD (recombinant); assay: flow cytometry on cells

B1: V1WT_06 IgG (antibody, V domains shown)
VH: EVQLVQSGAEVKKPGASVKVSCKASGYTFSSHGISWVRQAPGQGLEWMGWISTYNGNTNSAQNLQGRVTMTADTSTSTAYMELRSLRSDDTAVYYCARGPWGYCSGTSCYYWTPDNPAYSYHGMDVWGQGTTVTVSS
VL: not shown
- fold increase in binding of the IgG over the Fab [1]: 1.3 fold

B2: V1WT_06 Fab (Fab, V domains shown)
VH: B1 VH
VL: not shown
- binding result [2]: binds

B3: V1WT_41 IgG (antibody, V domains shown)
VH: QVQLQESGPGLVKPSETVSVTCTVSGGSITRSNYYWGWIRQPPGKGLEWIGSIFYNGNTNYNPSLKSRLTISVDTSKNQFSLKLSSVTAADTAVYYCARTAPYYYDRSGYYQKEEYFQRWGQGTLVTVSS
VL: EIVMTQSPSTLSASVGDRVTITCRASQSISTWLAWYQQKPGKAPNLLIYQASSLESGVPSRFSGSGSGTEFTLTISSLQPDDFATYYCQQYNNYPRTFGQGTKLEIK
- binding result [3]: binds
- binding result [1]: binds
- binding result [4]: binds

B4: VA14_26 IgG (antibody, V domains shown)
VH: QVQLQQWGAGLLKPSDTLSLTCGISGGPFSGYYWSWIRQPPGKGLEWLGEINHSGITTYNPSLKSRGTISVDTSKRQISLKLASVTAADTAVYYCARFAYGDYGWDYSSDMDVWGKGTTVTVSS
VL: DIQLTQSPSTLSASVGDRVTITCRASQSISTWLAWHQQIPGKAPKLLIYRASTLQSGVPSRFSGSGSGTEFTLTISSLQPDDFATYYCQQYYSVRTFGQGTKVDIK
- binding result [5]: binds
